According to paper PMC5971111 (Nature structural & molecular biology, 2018):

Legend:
Assay in all cases: […]
Sec5 = molecular target: T1, Sec5 (S. cerevisiae, UniProt P89102 1-971)
T1 sequence: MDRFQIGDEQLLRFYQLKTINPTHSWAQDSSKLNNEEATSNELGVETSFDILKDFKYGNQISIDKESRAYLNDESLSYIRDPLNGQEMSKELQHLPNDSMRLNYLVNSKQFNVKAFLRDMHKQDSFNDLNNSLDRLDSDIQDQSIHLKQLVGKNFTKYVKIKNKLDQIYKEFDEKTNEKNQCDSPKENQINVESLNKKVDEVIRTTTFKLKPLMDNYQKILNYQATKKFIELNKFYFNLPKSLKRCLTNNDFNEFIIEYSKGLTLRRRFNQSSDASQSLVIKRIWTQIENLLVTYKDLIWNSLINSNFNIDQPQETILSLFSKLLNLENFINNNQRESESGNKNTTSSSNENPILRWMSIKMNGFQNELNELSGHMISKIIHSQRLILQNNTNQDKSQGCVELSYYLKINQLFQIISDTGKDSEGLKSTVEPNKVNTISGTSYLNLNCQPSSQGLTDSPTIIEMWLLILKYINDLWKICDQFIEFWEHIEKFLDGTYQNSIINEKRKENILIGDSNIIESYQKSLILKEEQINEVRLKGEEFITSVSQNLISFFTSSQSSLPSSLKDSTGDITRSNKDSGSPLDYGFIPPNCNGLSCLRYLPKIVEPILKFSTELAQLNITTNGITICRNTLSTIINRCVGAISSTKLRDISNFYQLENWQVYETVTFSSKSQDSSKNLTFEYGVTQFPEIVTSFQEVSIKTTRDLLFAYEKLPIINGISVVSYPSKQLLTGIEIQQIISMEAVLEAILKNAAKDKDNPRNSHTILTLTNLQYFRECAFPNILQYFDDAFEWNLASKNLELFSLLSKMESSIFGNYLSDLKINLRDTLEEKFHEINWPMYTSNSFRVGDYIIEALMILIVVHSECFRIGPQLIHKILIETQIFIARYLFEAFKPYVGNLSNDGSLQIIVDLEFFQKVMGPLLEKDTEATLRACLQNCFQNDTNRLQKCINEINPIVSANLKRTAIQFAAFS

Sec8 = molecular target: T2, Sec8 (S. cerevisiae, UniProt P32855 1-1065)
T2 sequence: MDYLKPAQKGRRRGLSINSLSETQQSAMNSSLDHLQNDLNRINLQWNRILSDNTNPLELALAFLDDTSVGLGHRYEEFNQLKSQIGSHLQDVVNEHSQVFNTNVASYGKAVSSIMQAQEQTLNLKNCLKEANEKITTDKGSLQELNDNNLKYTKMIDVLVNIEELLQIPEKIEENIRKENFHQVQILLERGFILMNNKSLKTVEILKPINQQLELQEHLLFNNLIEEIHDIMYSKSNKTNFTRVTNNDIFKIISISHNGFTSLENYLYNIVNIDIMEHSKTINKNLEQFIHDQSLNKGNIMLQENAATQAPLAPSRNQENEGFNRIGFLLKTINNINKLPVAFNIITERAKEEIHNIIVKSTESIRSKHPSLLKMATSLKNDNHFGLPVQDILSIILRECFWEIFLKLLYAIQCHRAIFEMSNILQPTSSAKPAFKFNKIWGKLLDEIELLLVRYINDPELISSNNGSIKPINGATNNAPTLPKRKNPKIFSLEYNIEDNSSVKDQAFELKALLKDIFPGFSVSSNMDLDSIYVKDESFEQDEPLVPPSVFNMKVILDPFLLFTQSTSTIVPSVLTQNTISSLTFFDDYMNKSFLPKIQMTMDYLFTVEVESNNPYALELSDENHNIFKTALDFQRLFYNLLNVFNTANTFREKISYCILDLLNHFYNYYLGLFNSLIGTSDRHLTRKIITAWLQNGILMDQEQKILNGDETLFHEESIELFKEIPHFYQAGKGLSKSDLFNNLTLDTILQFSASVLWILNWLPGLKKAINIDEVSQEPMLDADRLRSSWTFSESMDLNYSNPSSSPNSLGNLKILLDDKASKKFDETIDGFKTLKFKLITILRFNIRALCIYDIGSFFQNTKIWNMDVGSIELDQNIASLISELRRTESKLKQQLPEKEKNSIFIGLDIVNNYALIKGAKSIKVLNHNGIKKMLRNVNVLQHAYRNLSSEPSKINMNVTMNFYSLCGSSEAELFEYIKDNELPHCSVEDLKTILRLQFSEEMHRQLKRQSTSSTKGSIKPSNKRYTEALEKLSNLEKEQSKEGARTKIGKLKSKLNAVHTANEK

Sec10 = molecular target: T3, Sec10 (S. cerevisiae, UniProt Q06245 1-871)
T3 sequence: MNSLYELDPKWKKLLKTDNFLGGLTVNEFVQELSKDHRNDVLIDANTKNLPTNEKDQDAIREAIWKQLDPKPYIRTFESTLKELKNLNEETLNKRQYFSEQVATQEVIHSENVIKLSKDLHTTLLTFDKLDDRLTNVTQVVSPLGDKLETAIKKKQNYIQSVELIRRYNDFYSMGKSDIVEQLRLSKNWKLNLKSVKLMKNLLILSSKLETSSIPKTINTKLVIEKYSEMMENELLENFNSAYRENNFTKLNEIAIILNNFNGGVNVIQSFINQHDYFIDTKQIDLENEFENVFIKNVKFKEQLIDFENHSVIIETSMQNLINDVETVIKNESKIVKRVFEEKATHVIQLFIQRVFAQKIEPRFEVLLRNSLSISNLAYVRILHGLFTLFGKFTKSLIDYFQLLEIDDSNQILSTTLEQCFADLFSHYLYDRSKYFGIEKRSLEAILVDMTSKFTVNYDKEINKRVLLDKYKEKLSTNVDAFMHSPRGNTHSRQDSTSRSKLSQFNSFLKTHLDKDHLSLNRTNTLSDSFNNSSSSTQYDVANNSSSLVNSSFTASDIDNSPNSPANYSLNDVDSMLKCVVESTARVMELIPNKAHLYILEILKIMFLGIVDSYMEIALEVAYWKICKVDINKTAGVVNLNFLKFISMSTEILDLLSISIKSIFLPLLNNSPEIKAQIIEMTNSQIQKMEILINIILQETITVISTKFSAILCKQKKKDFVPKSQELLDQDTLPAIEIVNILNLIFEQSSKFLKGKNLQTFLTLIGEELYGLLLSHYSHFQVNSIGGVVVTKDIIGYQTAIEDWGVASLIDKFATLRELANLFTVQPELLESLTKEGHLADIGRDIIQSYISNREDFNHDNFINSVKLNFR

Measured: binding result

B1: Exo84 (natural protein)
chain: MVEFSLKKARNNWKHVKKSASSPAKQKTPPSPAKPKQKTKKNPYSDLKDPATSYTLPTINARERSRVATSMQRRLSIHNTNYAPPTLDYSMPLPDMPNMIVPNDNVDSSHNNSSFTTENESVSSKGPSNSLNLSTADLSLNDSSYNKVPARSAMRNTVNPSGSNDPFNNSTSLRKMLANPHFNAKDFVHDKLGNASAITIDKFTSNLTDLSIQVQEEVKLNINKSYNEIMTVNNDLNVAMLELKRVRANINDLNEVLDQCTKIAEKRLQLQDQIDQERQGNFNNVESHSNSPALLPPLKAGQNGNLMRRDRSSVLILEKFWDTELDQLFKNVEGAQKFINSTKGRHILMNSANWMELNTTTGKPLQMVQIFILNDLVLIADKSRDKQNDFIVSQCYPLKDVTVTQEEFSTKRLLFKFSNSNSSLYECRDADECSRLLDVIRKAKDDLCDIFHVEEENSKRIRESFRYLQSTQQTPGRENNRSPNKNKRRSMGGSITPGRNVTGAMDQYLLQNLTLSMHSRPRSRDMSSTAQRLKFLDEGVEEIDIELARLRFESAVETLLDIESQLEDLSERISDEELMLLNLISLKIEQRREAISSKLSQSILSSNEIVHLKSGTENMIKLGLPEQALDLFLQNRSNFIQDLILQIGSVDNPTNYLTQLAVIRFQTIKKTVEDFQDIFKELGAKISSILVDWCSDEVDNHFKLIDKQLLNDEMLSPGSIKSSRKQIDGLKAVGLDFVYKLDEFIKKNSDKIR
binds: Sec5 | Sec8 | Sec10
